The target in data set [1] is T1, Soluble human recombinant p97 (melanotransferrin).
T1 chain: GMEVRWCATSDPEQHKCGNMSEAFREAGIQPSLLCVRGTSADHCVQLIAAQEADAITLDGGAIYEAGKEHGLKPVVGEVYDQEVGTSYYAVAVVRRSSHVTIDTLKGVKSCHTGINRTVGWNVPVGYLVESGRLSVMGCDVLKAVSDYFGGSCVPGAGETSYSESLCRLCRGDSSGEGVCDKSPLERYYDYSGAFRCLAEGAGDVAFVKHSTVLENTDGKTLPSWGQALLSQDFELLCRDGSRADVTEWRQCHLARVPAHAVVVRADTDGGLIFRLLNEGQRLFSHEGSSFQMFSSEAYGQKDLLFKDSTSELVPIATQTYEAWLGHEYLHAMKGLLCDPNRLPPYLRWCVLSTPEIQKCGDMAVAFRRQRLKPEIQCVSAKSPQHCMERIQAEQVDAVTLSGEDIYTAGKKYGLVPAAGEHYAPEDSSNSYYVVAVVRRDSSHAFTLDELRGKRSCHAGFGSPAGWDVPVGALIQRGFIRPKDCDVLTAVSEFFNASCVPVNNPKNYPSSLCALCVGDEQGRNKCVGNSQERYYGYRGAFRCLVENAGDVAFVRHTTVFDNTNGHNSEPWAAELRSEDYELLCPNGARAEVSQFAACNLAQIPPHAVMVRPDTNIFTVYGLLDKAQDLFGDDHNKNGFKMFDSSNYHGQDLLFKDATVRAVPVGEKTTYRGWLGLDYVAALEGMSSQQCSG

In the next data set the target is T2, plasminogen, P00747.
T2 chain: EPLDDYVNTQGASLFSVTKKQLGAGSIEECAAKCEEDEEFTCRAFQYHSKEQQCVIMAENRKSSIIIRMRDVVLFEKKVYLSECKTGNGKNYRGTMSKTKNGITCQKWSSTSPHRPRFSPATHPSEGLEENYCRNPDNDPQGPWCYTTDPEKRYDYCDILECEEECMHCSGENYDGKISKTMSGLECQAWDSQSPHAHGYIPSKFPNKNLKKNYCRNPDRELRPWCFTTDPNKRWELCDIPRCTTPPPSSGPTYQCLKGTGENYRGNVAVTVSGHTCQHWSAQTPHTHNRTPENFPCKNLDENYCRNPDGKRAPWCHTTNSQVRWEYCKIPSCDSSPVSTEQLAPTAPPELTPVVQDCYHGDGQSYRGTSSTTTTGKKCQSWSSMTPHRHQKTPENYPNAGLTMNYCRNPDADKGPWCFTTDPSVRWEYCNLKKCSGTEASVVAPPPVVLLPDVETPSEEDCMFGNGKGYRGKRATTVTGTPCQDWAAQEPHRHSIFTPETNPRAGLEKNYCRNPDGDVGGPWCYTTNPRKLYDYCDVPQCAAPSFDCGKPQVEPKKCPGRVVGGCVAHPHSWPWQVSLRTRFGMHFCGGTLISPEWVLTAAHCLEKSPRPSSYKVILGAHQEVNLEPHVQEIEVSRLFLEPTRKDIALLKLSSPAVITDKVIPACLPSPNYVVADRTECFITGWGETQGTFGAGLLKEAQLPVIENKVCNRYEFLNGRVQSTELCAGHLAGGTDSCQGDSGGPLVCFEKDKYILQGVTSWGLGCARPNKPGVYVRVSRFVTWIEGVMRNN

B1: tissue plasminogen activator (tPA) (protein)
chain: SYQVICRDEKTQMIYQQHQSWLRPVLRSNRVEYCWCNSGRAQCHSVPVKSCSEPRCFNGGTCQQALYFSDFVCQCPEGFAGKCCEIDTRATCYEDQGISYRGTWSTAESGAECTNWNSSALAQKPYSGRRPDAIRLGLGNHNYCRNPDRDSKPWCYVFKAGKYSSEFCSTPACSEGNSDCYFGNGSAYRGTHSLTESGASCLPWNSMILIGKVYTAQNPSAQALGLGKHNYCRNPDGDAKPWCHVLKNRRLTWEYCDVPSCSTCGLRQYSQPQFRIKGGLFADIASHPWQAAIFAKHRRSPGERFLCGGILISSCWILSAAHCFQERFPPHHLTVILGRTYRVVPGEEEQKFEVEKYIVHKEFDDDTYDNDIALLQLKSDSSRCAQESSVVRTVCLPPADLQLPDWTECELSGYGKHEALSPFYSERLKEAHVRLYPSSRCTSQHLLNRTVTDNMLCAGDTRSGGPQANLHDACQGDSGGPLVCLNDGRMTLVGIISWGLGCGQKDVPGVYTKVTNYLDWIRDNMRP
With B1, the “VLK-pNA hydrolysis by 75 nM tPA with 70 nM p97, without plasminogen” value in data set [1] is given as “Addition of p97 to tPA elicits no observable effect”. In addition, in the data set with plasminogen, P00747, the “apparent Km of tPA for plasminogen, with 50 nM p97” value was “decreases the apparent Km of tPA for plasminogen by 5-fold from 280 to 52 nM” and the “apparent Km of tPA for plasminogen, without p97” value was “decreases the apparent Km of tPA for plasminogen by 5-fold from 280 to 52 nM”.

The values are drawn from patent US20070053894.
